Laboratory results: the supplement of paper PMC11865577

What follows are sequences tested on G-clamp-N3 (biotin conjugate) (assay: pull-down binding Z-score (relative to library population); higher = stronger binding). Details: RNA library: Library-1 (pre-miRNA loops + repeats).
Summary of the method: (§1)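 Cy5- or Cy3-end-labelled RNA library (1 μg) was heat-folded in phosphate/NaCl/KCl buffer and incubated 60 min at 25 °C with streptavidin beads carrying 100 pmol biotin-conjugated small molecule. After three washes, bound RNA was eluted in hot SDS and hybridised 20 h at 55.5 °C to a DNA barcode microarray. Binding was scored by subtracting a beads-only control, averaging barcoded replicate probes after dropping highest and lowest, and converting to a Z-score against library mean and standard deviation.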

Sequence	pull-down binding Z-score
CAGCCUGUUGUCAAGGCUG [hsa-mir-3130-1]	-0.13
CAGCCUUGACAACAGGCUG [hsa-mir-3130-2]	-0.151
CAGCUACACAAGCUG [hsa-mir-631]	1.64
CAGCUGUUGUCUCCAGAGCAUUCCAGCUG [hsa-mir-191]	-0.433
CAGCUUGCUCUGCUUU [hsa-mir-4303]	0.072
CAGGAGUGGACACCUG [hsa-mir-1246]	-0.505
CAGGAUUAGUGCUUAUGCUAAGAUGUCUUCACUG [hsa-mir-6773]	0.887
CAGGCAGUGGAGUUACUU [hsa-mir-600]	-1.07
CAGGCCAGGGGCAGACAGUGGACAGAGAACAGUGCCCAAGACCACUG [hsa-mir-378e]	1.13
CAGGCGGGGCAGCCCAAUGCCAUGGGCCUGAU [hsa-mir-4695]	2.14
CAGGCUGCUAAACAACAGAACGAGCACUG [hsa-mir-378f]	0.125
CAGGCUGGUCUCAAACUCCUGGUCUG [hsa-mir-1285-1]	-0.288
CAGGCUGUGGCUCUCUGAAAGUC [hsa-mir-148b]	-1.29
CAGGGAACUUUAAAACC [hsa-mir-4324]	0.493
CAGGGCGGUGCGGCAGCCGCCACC [hsa-mir-3621]	-0.214
CAGGGGUUCUGAUAAACCCUUC [hsa-mir-6738]	-0.182
CAGGUAGUUUUGGCAUGACUCUACUG [hsa-mir-20b]	-0.719
CAGGUGCCUCAAAGGGCAUCCCACCUG [hsa-mir-3151]	-0.124
CAGGUGUUCUUAAAAUCACCUG [hsa-mir-875]	-0.405
CAGUAAGCCUUGACUUAUGGCUAAAUGCUUC [hsa-mir-4273]	-1.02

Sequence	pull-down binding Z-score
CAGUACUGGUCUUAGACUG [hsa-mir-554]	0.887
CAGUAUGAAUGAAUUCAUGAUACUG [hsa-mir-3607]	0.669
CAGUCAGUAAAUAUUUUUUUGUGAAUG [hsa-mir-511]	0.202
CAGUCCUGAGAUGCAGGGACUG [hsa-mir-4799]	0.166
CAGUGAACUAUCAUUGUGCCACUG [hsa-mir-1254-1]	0.978
CAGUGACAUGCGUUUAAC [hsa-mir-4485]	-0.778
CAGUGAGCCAAGAUCGUGCCACUG [hsa-mir-1273d]	-0.48
CAGUGAGCUAUGAUCAUGUCCCUG [hsa-mir-1254-2]	0.526
CAGUGCACCUUCAUGAACCG [hsa-mir-938]	-1.11
CAGUGCUUUUAGAAAAUUUGUGUG [hsa-mir-581]	-0.904
CAGUGGCAGAUUUUCCCAUAG [hsa-mir-4727]	-1.12
CAGUGGCAUCUGUCAUUG [hsa-mir-4663]	-0.635
CAGUGGGGACAUG [hsa-mir-4531]	-0.559
CAGUGGUGCCAUCUCCCCUG [hsa-mir-5008]	-1.49
CAGUGUUAGCUCCAGAAGCAUUG [hsa-mir-3170]	1.14
CAGUUGUACUGUGGCUG [hsa-mir-1291]	0.37
CAUACAUAUGCCUACUACUACUUUCAUAUGUAGGCAUAUGUAUG [hsa-mir-7852]	-0.626
CAUACAUUUUGAAUAUGUAUG [hsa-mir-299]	-0.304
CAUAUGUAUGUAUGUAUGUCUGUUACACAUAUG [hsa-mir-3688-1]	-0.787
CAUAUGUGUAACAGACAUACAUACAUACAUAUG [hsa-mir-3688-2]	-0.866

Sequence	pull-down binding Z-score
CAUCACUGGAAUGUUCCAGCGACU [hsa-mir-3654]	-0.704
CAUCAUUUGCACUACUGAUACUUGGGGUCAGAUAAUUGUUUGUGGUG [hsa-mir-4447]	0.115
CAUCCCGGACGGCCUGUGAGGGAUG [hsa-mir-4787]	1.57
CAUGAGCCCUUUGGAAAGGUCUCGUG [hsa-mir-4711]	-0.633
CAUGAUUUGGAAAAAUUACUG [hsa-mir-6128]	-0.888
CAUGCAGCAUGCUUGUCUG [hsa-mir-767]	-0.359
CAUGCAGGCCACACUGACGGUAACGUUGCAGG [hsa-mir-431]	1.54
CAUGCAUGUGUCUAGAAAUAUGUUUU [hsa-mir-507]	0.0271
CAUGCGCUAUCUCUGUGUCGUAUG [hsa-mir-380]	-0.269
CAUGUAUGUGUAUAUACAUAUAUAUG [hsa-mir-297]	1.71
CAUGUGCUGAGUUCGUGCCAUAUG [hsa-mir-654]	0.492
CAUGUGGUGGAACGAUGGAAACGGAACAUG [hsa-mir-218-2]	1.07
CAUGUUAAGUGUUGUCCUACAG [hsa-mir-5087]	-0.819
CAUUAACGUGGACCAGACAAUAUUAAUG [hsa-mir-4491]	-1.14
CAUUACUAAACUCAGUAAUG [hsa-mir-451b]	0.93
CAUUCACAUAGACUAUAAUUGAAUG [hsa-mir-652]	0.721
CAUUCUUUGCUA [hsa-mir-567]	-1.3
CAUUGGUGUAAAGCUGGAGACCCACUG [hsa-mir-324]	0.528
CAUUGUAACAUGAUAGUG [hsa-mir-4264]	0.389

Each sequence was assayed on TO-3-N3 (biotin conjugate) in the same assay as above. Details: RNA library: Library-2.
Summary of the method: as §1

Sequence	pull-down binding Z-score
CAGCCUGUUGUCAAGGCUG [hsa-mir-3130-1]	0.535
CAGCCUUGACAACAGGCUG [hsa-mir-3130-2]	0.503
CAGCUACACAAGCUG [hsa-mir-631]	-0.0598
CAGCUGUUGUCUCCAGAGCAUUCCAGCUG [hsa-mir-191]	0.371
CAGCUUGCUCUGCUUU [hsa-mir-4303]	-0.387
CAGGAGUGGACACCUG [hsa-mir-1246]	-0.0928
CAGGAUUAGUGCUUAUGCUAAGAUGUCUUCACUG [hsa-mir-6773]	-0.824
CAGGCAGUGGAGUUACUU [hsa-mir-600]	0.683
CAGGCCAGGGGCAGACAGUGGACAGAGAACAGUGCCCAAGACCACUG [hsa-mir-378e]	0.426
CAGGCGGGGCAGCCCAAUGCCAUGGGCCUGAU [hsa-mir-4695]	0.737
CAGGCUGCUAAACAACAGAACGAGCACUG [hsa-mir-378f]	-0.22
CAGGCUGGUCUCAAACUCCUGGUCUG [hsa-mir-1285-1]	-0.202
CAGGCUGUGGCUCUCUGAAAGUC [hsa-mir-148b]	0.761
CAGGGAACUUUAAAACC [hsa-mir-4324]	0.41
